Sequences and labels used below:
B1: Fab clone 19 (Fab, V domains shown)
VH: QVKLLEESGGGLVRLAGSLRLSCAASGTTLSGYTMHWVRQAPGKGLEWVSSITGGSNFINYSDSVKGRFTISRDNAKNSLYLQMNSLTAEDTAVYYCATAPIAPPYFDHWGQGTLVTVSS
VL: ELTQSPSSLSASVGDRVTITCRATQSVSNFLNWYQQKPGEAPTLLIYDASTSQSGVPSRFSGSGSGMDFSLTISSLQPEDLAMYYCQASINTPLFGGGTRIDMR
notes: Human IgG1 kappa Fab made as soluble Fab in E. coli; Variable domains are identical to clone 13; also called Fab 19; RSV Fab 19
B2: Fab clone 13 (Fab, V domains shown)
VH: B1 VH
VL: B1 VL
notes: Human IgG1 kappa Fab made as soluble Fab in E. coli; Variable domains are identical to clone 19; also called Fab 13; rsv 13H/13L
B3: Fab clone 11 (Fab, V domains shown)
VH: VKLLEQSGGGLVQPGGSLRLSCAVSGVTFSAYAMSWVRQAPGKGLEWVSGISGSGDSTDYADSVKGRLTISRDNSKNTLYLQMNSLRAEDTAIYYCASHLPDYWNLDYTRFFYYMDVWGKGTTVTVSS
VL: ELTQSPGTLSLSPGERATLSCRATQSISSNYLAWYQQRPGQAPRLLIYGASNRATDIPDRFSGSGSGTDFTLTISRLEPEDFAMYYCQQYDISPYTFGQGTKLEIK
notes: Human IgG1 kappa Fab from a pComb3 phage library, made as soluble Fab in E. coli; also called Fab 11; rsv 11H/11L

Sequence of RSV (subgroup A) F glycoprotein (P03420 26-574): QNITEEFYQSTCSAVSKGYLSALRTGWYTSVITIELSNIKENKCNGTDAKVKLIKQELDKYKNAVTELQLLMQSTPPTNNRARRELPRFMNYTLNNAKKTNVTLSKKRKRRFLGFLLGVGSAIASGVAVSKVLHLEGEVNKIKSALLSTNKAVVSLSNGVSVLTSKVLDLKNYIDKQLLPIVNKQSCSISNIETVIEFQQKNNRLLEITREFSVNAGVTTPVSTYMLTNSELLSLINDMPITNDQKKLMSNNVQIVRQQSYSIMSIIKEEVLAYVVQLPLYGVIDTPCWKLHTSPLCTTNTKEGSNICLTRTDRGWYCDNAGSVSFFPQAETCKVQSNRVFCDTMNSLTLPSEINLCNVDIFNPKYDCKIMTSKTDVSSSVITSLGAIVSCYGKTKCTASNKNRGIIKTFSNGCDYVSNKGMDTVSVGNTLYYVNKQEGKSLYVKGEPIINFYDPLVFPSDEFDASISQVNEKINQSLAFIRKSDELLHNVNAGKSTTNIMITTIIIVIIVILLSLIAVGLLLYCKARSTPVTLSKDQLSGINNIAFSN

For the first test, the target named is T1, baculovirus-expressed FG fusion glycoprotein (respiratory syncytial virus, UniProt P03420 26-489; P03423 97-279).
T1 construct: also called RSV FG glycoprotein; recombinant FG glycoprotein
T1 sequence (P03420 26-489, tags or fused parts left off): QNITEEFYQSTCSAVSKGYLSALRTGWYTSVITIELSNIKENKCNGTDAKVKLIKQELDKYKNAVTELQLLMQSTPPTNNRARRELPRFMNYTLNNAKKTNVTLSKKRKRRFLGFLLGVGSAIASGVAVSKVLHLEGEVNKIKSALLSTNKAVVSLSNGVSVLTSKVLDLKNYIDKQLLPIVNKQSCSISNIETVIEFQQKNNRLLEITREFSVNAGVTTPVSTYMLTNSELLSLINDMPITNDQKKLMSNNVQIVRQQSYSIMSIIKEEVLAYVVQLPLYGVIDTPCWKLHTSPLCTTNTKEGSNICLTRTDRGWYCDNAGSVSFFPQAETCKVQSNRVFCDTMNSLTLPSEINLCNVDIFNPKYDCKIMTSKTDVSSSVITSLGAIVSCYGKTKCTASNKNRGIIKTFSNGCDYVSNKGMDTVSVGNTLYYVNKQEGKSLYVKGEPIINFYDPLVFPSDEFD
Description: inhibition ELISA, free FG against coated FG.
On to B1, for which the Ka is ~1e+08 M⁻¹.
The same measure, in the same setting: next, B2: ~1e+08 M⁻¹.
In the case of B3, the Ka was ~1e+08 M⁻¹.

A further test addresses RSV (subgroup A) F glycoprotein (respiratory syncytial virus subgroup A …, UniProt P03420 26-574). Description: cell-based or functional assay.
For the molecule B1, the “Concentration of Fab Needed for 60% Plaque Reduction (µg/ml), RSV; purified from lysate” value is 0.4 µg/mL and the “Maximum Neutralization of RSV (Subgroup A); purified from lysate” value worked out at 100%.
Turning to B2, the “Concentration of Fab Needed for 60% Plaque Reduction (µg/ml), RSV; purified from lysate” value was 0.2 µg/mL and the “Maximum Neutralization of RSV (Subgroup A); purified from lysate” value was 98%.
Taken in the same sequence, the figures for B3 were 1.8 µg/mL and 88%.
